Laboratory results taken from US20230129812A1, “COMPOSITIONS AND METHODS FOR TREATING PULMONARY HYPERTENSION” (Acceleron Pharma Inc., priority 2020, published 2023).

Legend:
[1] = system: rat model of pulmonary arterial hypertension (PAH), monocrotaline-induced; assay: Monocrotaline (MCT) rat model of pulmonary arterial hypertension; type: in vivo, Sprague Dawley rats; details: MCT rats, compared to monocrotaline treated rats (vehicle)
Protocol: The effects of an ActRIIA-mFc fusion protein (ActRIIA-mFc homodimer as described in Example 1), an ALK4-Fc-ActRIIB-Fc heterodimer (as described in Examples 12 and 13), and sildenafil (a phosphodiesterase-5 inhibitor approved for the treatment of PAH) were examined in a rat model of pulmonary arterial hypertension (PAH). In this model, Sprague Dawley rats received a […] injection of monocrotaline (MCT) to induce PAH 24 hours prior to start of therapy.
Rats were separated into different treatment groups (10 mice per group): 1) treatment with MCT (60 mg/kg administered i.p. as a single dose at day 1 of study) and Tris buffered saline (i.p. as 1 ml/kg, every three days) (vehicle treatment group), 2) treatment with an ActRIIA-mFc polypeptide (10 mg/kg administered i.p. every three days) and MCT (60 mg/kg administered i.p. as a single dose at day 1 of study), 3) treatment with an ALK4-Fc:ActRIIB-Fc heterodimer (10 mg/kg administered i.p. every three days) and MCT (60 mg/kg administered i.p. as a single dose at day 1 of study), 4) treatment with sildenafil (30 mg/kg administered orally twice daily) and MCT (60 mg/kg administered i.p. as a single dose at day 1 of study), and 5) control rats (Tris buffered saline administered i.p. as 1 ml/kg, every three days). Rats were treated for 28 days. Body weights were recorded prior to first dose on Day 1 and then weekly throughout the study.
On day 28, rats were anesthetized by an intraperitoneal injection of ketamine/xylazine (80/10 mg/kg). An incision was made in the neck, and a jugular vein was isolated and ligated anteriorly. A fluid-filled pressure catheter was introduced into the right jugular vein to measure pulmonary artery pressure (PAP). Another incision was made in the inguinal region, and femoral artery was isolated and ligated anteriorly. […] Mean arterial pressure and right PAP were monitored using the Notocord HEM (Croissy sur Seine, Frnace) v3.5 data capture system for approximately 5-10 minutes until stable measurements were obtained. During the measurements, rats were maintained at approximately 37° C. on a heating pad and body temperature was monitored throughout the procedure with a rectal temperature probe. […] Hypertrophy was assessed, in part, by calculating RV/LV+S. The lungs were also weighed.
Similar trends were observed on vessel muscularity based on histopathologic scoring. […] Pulmonary arterioles from vehicle treated rats were determined to be 62.3% completely muscularized, 36.4% partially muscularized, and 1.4% non-muscularized. […] Histopathological scoring of smooth muscle hypertrophy of pulmonary arterioles were also recorded as follows: 0 (normal), 1 (minimal), 2 (mild), 3 (moderate), or 4 (marked).

activin A = target: T1, activin A (Homo sapiens, UniProt P08476); assay: A-204 reporter gene assay, pGL3(CAGA)12 luciferase; type: cell-based; details: A-204 reporter gene assay
T1 sequence (P08476 311-426): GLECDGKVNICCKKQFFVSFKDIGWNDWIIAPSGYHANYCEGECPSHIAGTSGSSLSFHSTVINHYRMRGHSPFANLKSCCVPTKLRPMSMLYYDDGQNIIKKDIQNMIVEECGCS
Method in brief: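 Human rhabdomyosarcoma A-204 cells transfected with SMAD-responsive pGL3(CAGA)12 luciferase reporter (optionally with pRLCMV). Ligand in medium + 0.1% BSA, preincubated ~1 h with Fc-fusion inhibitor before addition to cells; after ~6 h cells lysed and luciferase activity measured.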

GDF3 = target: T2, GDF3 (Homo sapiens, UniProt Q9NR23); assay: Biacore ligand binding profile, ALK4-Fc:ActRIIB-Fc heterodimer vs homodimers, anti-Fc capture (Example 13, Table 13)
T2 sequence (Q9NR23 251-364): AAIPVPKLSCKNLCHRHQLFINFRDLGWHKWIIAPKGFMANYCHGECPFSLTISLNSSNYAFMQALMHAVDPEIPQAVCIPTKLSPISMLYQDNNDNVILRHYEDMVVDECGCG

B1: ALK4-Fc:ActRIIB-Fc heterodimer: heteromeric complex of extracellular domains of human ActRIIB and human ALK4, each separately fused to an Fc domain with a linker (protein)
chain 1: GRGEAETRECIYYNANWELERTNQSGLERCEGEQDKRLHCYASWRNSSGTIELVKKGCWLDDFNCYDRQECVATEENPQVYFCCCEGNFCNERFTHLPEAGGPEVTYEPPPTAPTGGGTHTCPPCPAPELLGGPSVFLFPPKPKDTLMISRTPEVTCVVVDVSHEDPEVKFNWYVDGVEVHNAKTKPREEQYNSTYRVVSVLTVLHQDWLNGKEYKCKVSNKALPAPIEKTISKAKGQPREPQVYTLPPSRKEMTKNQVSLTCLVKGFYPSDIAVEWESNGQPENNYKTTPPVLKSDGSFFLYSKLTVDKSRWQQGNVFSCSVMHEALHNHYTQKSLSLSPGK
chain 2: SGPRGVQALLCACTSCLQANYTCETDGACMVSIFNLDGMEHHVRTCIPKVELVPAGKPFYCLSSEDLRNTHCCYTDYCNRIDLRVPSGHLKEPEHPSMWGPVETGGGTHTCPPCPAPELLGGPSVFLFPPKPKDTLMISRTPEVTCVVVDVSHEDPEVKFNWYVDGVEVHNAKTKPREEQYNSTYRVVSVLTVLHQDWLNGKEYKCKVSNKALPAPIEKTISKAKGQPREPQVYTLPPSREEMTKNQVSLTCLVKGFYPSDIAVEWESNGQPENNYDTTPPVLDSDGSFFLYSDLTVDKSRWQQGNVFSCSVMHEALHNHYTQKSLSLSPG
improvement in body weight ([1]; 28 days): +5.1% | decrease of right heart hypertrophy ([1]; day 28, RV/LV+S): 39.6% | decrease of lung weight ([1]; day 28): 19.0% | reduction of elevated PAP ([1]; day 28): 44.6% | inhibition of activin A signaling (activin A): potent inhibitors | GDF3 binding (GDF3; Example 13): substantially reduced binding | ka (GDF3; ligand GDF3, Table 13): 3.4e+06 M⁻¹ s⁻¹ | kd (GDF3; ligand GDF3, Table 13): 0.017 s⁻¹
